From publication PMC3117669 (The Biochemical journal, 2010)
Several values for one entry are separate records, joined by “and”; a condition that tells them apart may be missing. Equal entries are not always repeated. Each block holds one binder with its values, some of them ahead of it.

Legend:
[1] = target: T1, V5-lipin 1b (469-924), immunopurified (mouse, UniProt Q91ZP3 469-924); experiment: pull-down
T1 sequence (looked up): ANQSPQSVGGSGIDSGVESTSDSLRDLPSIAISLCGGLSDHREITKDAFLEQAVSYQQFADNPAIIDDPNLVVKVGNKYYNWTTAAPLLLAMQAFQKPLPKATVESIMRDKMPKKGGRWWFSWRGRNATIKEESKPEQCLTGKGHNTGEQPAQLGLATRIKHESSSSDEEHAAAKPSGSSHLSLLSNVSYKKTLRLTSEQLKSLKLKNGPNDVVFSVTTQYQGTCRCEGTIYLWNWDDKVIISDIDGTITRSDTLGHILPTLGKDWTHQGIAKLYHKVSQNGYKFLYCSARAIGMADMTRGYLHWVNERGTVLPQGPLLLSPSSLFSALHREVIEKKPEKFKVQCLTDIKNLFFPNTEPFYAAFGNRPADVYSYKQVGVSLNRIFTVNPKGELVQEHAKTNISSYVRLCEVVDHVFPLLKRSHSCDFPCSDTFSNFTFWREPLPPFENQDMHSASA

[2] = target: the molecule itself; experiment: native gel or EMSA
[3] = target: T2, GST-lipin 1b (1-641) (mouse, UniProt Q91ZP3 1-641); experiment: pull-down
T2 sequence (looked up): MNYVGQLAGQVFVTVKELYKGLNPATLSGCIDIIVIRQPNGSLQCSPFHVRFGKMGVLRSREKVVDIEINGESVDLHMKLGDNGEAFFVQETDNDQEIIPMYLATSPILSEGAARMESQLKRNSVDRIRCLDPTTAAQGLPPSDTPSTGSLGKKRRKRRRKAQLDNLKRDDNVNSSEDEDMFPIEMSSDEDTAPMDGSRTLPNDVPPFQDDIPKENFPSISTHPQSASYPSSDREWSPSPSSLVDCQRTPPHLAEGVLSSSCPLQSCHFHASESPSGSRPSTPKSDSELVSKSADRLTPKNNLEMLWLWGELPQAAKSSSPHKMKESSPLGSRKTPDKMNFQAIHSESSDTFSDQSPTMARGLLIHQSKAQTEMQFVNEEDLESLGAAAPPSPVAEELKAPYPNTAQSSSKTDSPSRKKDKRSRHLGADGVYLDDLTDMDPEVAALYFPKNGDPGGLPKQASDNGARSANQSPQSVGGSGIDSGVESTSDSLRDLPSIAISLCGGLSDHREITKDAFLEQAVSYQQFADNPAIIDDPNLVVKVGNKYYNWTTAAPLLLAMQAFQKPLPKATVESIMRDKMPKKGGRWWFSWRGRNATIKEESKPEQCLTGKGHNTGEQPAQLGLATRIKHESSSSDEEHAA

binding result [1]: binds
B1: GST-lipin 1b (642-924) (domain or fragment, mouse, UniProt Q91ZP3 642-924, looked up)
chain: AKPSGSSHLSLLSNVSYKKTLRLTSEQLKSLKLKNGPNDVVFSVTTQYQGTCRCEGTIYLWNWDDKVIISDIDGTITRSDTLGHILPTLGKDWTHQGIAKLYHKVSQNGYKFLYCSARAIGMADMTRGYLHWVNERGTVLPQGPLLLSPSSLFSALHREVIEKKPEKFKVQCLTDIKNLFFPNTEPFYAAFGNRPADVYSYKQVGVSLNRIFTVNPKGELVQEHAKTNISSYVRLCEVVDHVFPLLKRSHSCDFPCSDTFSNFTFWREPLPPFENQDMHSASA

B2: lipin 1b-V5 (HEK293A) (natural protein, mouse, UniProt Q91ZP3 1-924, looked up)
chain: MNYVGQLAGQVFVTVKELYKGLNPATLSGCIDIIVIRQPNGSLQCSPFHVRFGKMGVLRSREKVVDIEINGESVDLHMKLGDNGEAFFVQETDNDQEIIPMYLATSPILSEGAARMESQLKRNSVDRIRCLDPTTAAQGLPPSDTPSTGSLGKKRRKRRRKAQLDNLKRDDNVNSSEDEDMFPIEMSSDEDTAPMDGSRTLPNDVPPFQDDIPKENFPSISTHPQSASYPSSDREWSPSPSSLVDCQRTPPHLAEGVLSSSCPLQSCHFHASESPSGSRPSTPKSDSELVSKSADRLTPKNNLEMLWLWGELPQAAKSSSPHKMKESSPLGSRKTPDKMNFQAIHSESSDTFSDQSPTMARGLLIHQSKAQTEMQFVNEEDLESLGAAAPPSPVAEELKAPYPNTAQSSSKTDSPSRKKDKRSRHLGADGVYLDDLTDMDPEVAALYFPKNGDPGGLPKQASDNGARSANQSPQSVGGSGIDSGVESTSDSLRDLPSIAISLCGGLSDHREITKDAFLEQAVSYQQFADNPAIIDDPNLVVKVGNKYYNWTTAAPLLLAMQAFQKPLPKATVESIMRDKMPKKGGRWWFSWRGRNATIKEESKPEQCLTGKGHNTGEQPAQLGLATRIKHESSSSDEEHAAAKPSGSSHLSLLSNVSYKKTLRLTSEQLKSLKLKNGPNDVVFSVTTQYQGTCRCEGTIYLWNWDDKVIISDIDGTITRSDTLGHILPTLGKDWTHQGIAKLYHKVSQNGYKFLYCSARAIGMADMTRGYLHWVNERGTVLPQGPLLLSPSSLFSALHREVIEKKPEKFKVQCLTDIKNLFFPNTEPFYAAFGNRPADVYSYKQVGVSLNRIFTVNPKGELVQEHAKTNISSYVRLCEVVDHVFPLLKRSHSCDFPCSDTFSNFTFWREPLPPFENQDMHSASA
stoichiometry N [2]: 2 and 4

binding result [3]: binds
B3: V5-lipin 1b (1-171), immunopurified (domain or fragment, mouse, UniProt Q91ZP3 1-171, looked up)
chain: MNYVGQLAGQVFVTVKELYKGLNPATLSGCIDIIVIRQPNGSLQCSPFHVRFGKMGVLRSREKVVDIEINGESVDLHMKLGDNGEAFFVQETDNDQEIIPMYLATSPILSEGAARMESQLKRNSVDRIRCLDPTTAAQGLPPSDTPSTGSLGKKRRKRRRKAQLDNLKRDD
